Reference: the Human Domainome abundance scans (Beltran et al. 2025)

B1: Ventral anterior homeobox 1, residues 102 to 157; numbered along this chain, Q5SQQ9 (parent)
chain: RTRTSFTAEQLYRLEMEFQRCQYVVGRERTELARQLNLSETQVKVWFQNRRTKQKK
B2: Intersectin-1, residues 909 to 971; numbered along this chain, Q15811 (parent)
chain: QGEKVEGLQAQALYPWRAKKDNHLNFNKNDVITVLEQQDMWWFGEVQGQKGWFPKSYVKLISG

Variants of: B1
Assay: abundance fitness (aPCA) (normalised: wild type 0, dead -1); higher = more abundant; growth selection in yeast, the domain comes from the species named
Conditions: Homo sapiens

Abundance fitness of substitutions, site by site:
R51: H -0.038 | V -0.319 | N -0.117 | Q 0.049 | A -0.325 | K -0.365 | D -0.14 | C -0.08 | E -0.309 | G -0.16 | M -0.333 | S -0.201 | W -0.243 | F -0.2 | I 0.068
W46: V -0.63 | S -0.627 | Q -0.958 | G -0.778 | F -0.406 | I -0.807 | M -0.919 | K -1.11 | C -0.909 | R -0.844 | L -0.717 | T -0.922
K56: P 0.143 | N 0.151 | A -0.291 | Q -0.167 | S 0.135 | L -0.205 | V 0.005 | G 0.324 | C 0.148 | R -0.127 | I 0.003 | W 0.078 | M -0.17 | E 0.12 | Y -0.039 | H -0.159
V43: L -0.166 | C -0.508 | F -0.765 | S -0.561 | M -0.838 | P -0.723 | D -0.691 | W -0.871 | R -0.793 | A -0.679 | Q -0.817
V45: S 0.158 | K -0.258 | Q -0.061 | L 0.083 | P -0.545 | G -0.159 | H -0.021 | F -0.03 | T 0.126 | W 0.015 | A 0.02 | M -0.148 | I -0.3 | Y -0.046 | D 0.185 | N -0.248 | R -0.156
N49: C -0.283 | V -0.1 | K -0.022 | R -0.26 | E 0.297 | D -0.019 | I -0.069 | Q -0.038 | F -0.609 | S -0.277 | G -0.047 | T 0.072 | P -0.929 | M -0.442 | H -0.358 | L -0.046
R50: I -1.09 | L -0.925 | Q -0.098 | N -0.424 | P -1.02 | V -0.943 | M -0.034 | A -0.163 | H -0.624 | S -0.451 | W -0.929 | E 0.009 | K -0.041 | Y -0.285 | T -0.392 | G -0.832

Variants of: B2
Assay: as above
Conditions: Homo sapiens

Abundance fitness, by site and new letter:
K4: G -0.588 | S -0.014 | R -0.126 | E -0.11 | C 0.207 | Q -0.39 | A -0.159 | Y -0.039 | H -0.168 | F -0.193 | N -0.026 | P -0.29 | W -0.08 | V -0.168 | L -0.248
G2: K 0.076 | C -0.286 | M 0.113 | A -0.028 | R -0.38 | N -0.175 | D -0.265 | P -0.423 | T -0.051 | L -0.386 | S -0.018 | E -0.001
E3: W -0.332 | K -0.079 | V -0.293 | H -0.088 | D -0.021 | Q 0.026 | I 0.237 | T -0.305 | N 0.02 | A -0.293 | G -0.165 | R -0.074 | F -0.169 | M -0.312 | L -0.268 | C -0.153 | S -0.319
V5: C -0.488 | A -0.008 | H -0.657 | L -0.364 | G -0.155 | E -0.126 | D 0.126 | I -0.151 | M -0.073
Q1: R -0.299 | T -0.111 | G -0.083 | K -0.496 | W -0.34 | M -0.208 | C -0.06 | V 0.158 | S -0.334 | L -0.164 | E -0.335
